Data published in the supplement of paper PMC7877785.
± gives the uncertainty stated by the source.

Test: self-splicing fitness, log relative to wild type (ln ratio); higher = more splicing; Tetrahymena group I intron in knt gene, E. coli kanamycin selection, DiMSum; sequences stand for … in CUCUCU…GGAGGGAAAAGUUAUCAGGCAUGCACCUGGUAGCUAGUCUUUAAACCAAUAGAUUGCAUCGGUUUAAAAGGCAAGACCGUCAAAUUGCGGGAAAGGGGUCAACAGCCGUUCAGUACCAAGUCUCAGGGGAAACUUUGAGAUGGCCUUGCAAAGGGUAUGGUAAUAAGCUGACGGACAUGGUCCUAACCACGCAGCCAAGUCCUAAGUCAACAGAUCUUCUGUUGAUAUGGAUGCAGUUCACAGACUAAAUGUCGGUCGGGGAAGAUGUAUUCUUCUCAUAAGAUAUAGUCGGACCUCUCCUUAAUGGGAGCUAGCGGAUGAAGUGAUGCAACACUGGAGCCGCUGGGAACUAAUUUGUAUGCGAAAGUAUAUUGAUUAGUUUUGGAGUACUCGUGGUCG
Summary of the method: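 A randomised library covering all eight P1ex-region intron nucleotides was built with the intron in the knt kanamycin-resistance gene on pET-22b(+) and held in E. coli BL21(DE3). Cells were grown overnight at 37°C or 30°C on LB agar, with or without 25 μg/mL kanamycin, plus 100 μg/mL carbenicillin, 50 μM IPTG and 0.2% rhamnose, and pooled colonies were amplicon-sequenced on an Illumina HiSeq 2500. DiMSum fitness is the error-weighted combination of wild-type-normalised replicate fold changes, kanamycin versus none.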

Sequence	self-splicing fitness (ln) (37 °C)	self-splicing fitness (ln) (30 °C)
UUUCAGCAAUAUUACGAACC	-1.08 ± 0.38	
CUCGAGCAAUAUUACGAGGU	-2.58 ± 0.21	-3.53 ± 0.24
GCACAGCAAUAUUACGCCCC	-0.0642 ± 0.15	-0.949 ± 0.12
CACAAGCAAUAUUACGUGGC	-2.64 ± 0.27	-3.15 ± 0.21
AUGGAGCAAUAUUACGACAA	-2.46 ± 0.22	-1.86 ± 0.22
UGUCAGCAAUAUUACGAGCU	-0.417 ± 0.11	-0.801 ± 0.088
GCCUAGCAAUAUUACGAUGG	-2.05 ± 0.21	-3.13 ± 0.21
CACUAGCAAUAUUACGUCAG	0.566 ± 0.071	-0.817 ± 0.062
CAAUAGCAAUAUUACGAGGA	-2.07 ± 0.27	-2.82 ± 0.26
GAAUAGCAAUAUUACGAUAA	-0.77 ± 0.13	-1.51 ± 0.1
GGAAAGCAAUAUUACGUCGA	-0.528 ± 0.12	-1.84 ± 0.092
GUAGAGCAAUAUUACGGCGA	-0.23 ± 0.16	-1.87 ± 0.13
UCGAAGCAAUAUUACGUGUG	-0.757 ± 0.073	-1.43 ± 0.061
AACGAGCAAUAUUACGUAUG	-2.59 ± 0.17	-4.21 ± 0.23
GGUUAGCAAUAUUACGAAGU	-0.745 ± 0.18	-0.268 ± 0.2
AGUCAGCAAUAUUACGAACG	0.717 ± 0.15	0.155 ± 0.087
UGGUAGCAAUAUUACGAUAG	-0.14 ± 0.14	-1.94 ± 0.2
CUACAGCAAUAUUACGCUGG	-2.66 ± 0.15	-3.11 ± 0.097
AGCAAGCAAUAUUACGCCUU	0.351 ± 0.11	-1.24 ± 0.1

Sequence	self-splicing fitness (ln) (37 °C)	self-splicing fitness (ln) (30 °C)
CCCCAGCAAUAUUACGGUGC	-2.73 ± 0.18	-3.88 ± 0.19
GCGUAGCAAUAUUACGCGAU	-2.31 ± 0.26	-2.83 ± 0.26
UCGUAGCAAUAUUACGAAAU	-1.65 ± 0.26	-3.8 ± 0.33
AGAAAGCAAUAUUACGAGUG	-1.96 ± 0.12	-2.27 ± 0.094
CGCUAGCAAUAUUACGCCAC	-1.09 ± 0.26	-3.86 ± 0.43
GCUGAGCAAUAUUACGCUCA	-2.75 ± 0.48	
UGGCAGCAAUAUUACGCCGG	-0.838 ± 0.2	-1.64 ± 0.14
CUCCAGCAAUAUUACGAUCC	-1.49 ± 0.32	-4.16 ± 0.47
GACGAGCAAUAUUACGGGCG	-1.08 ± 0.17	-3.8 ± 0.27
UCGAAGCAAUAUUACGUUAG	-1.35 ± 0.13	-1.25 ± 0.1
AAUAAGCAAUAUUACGAUGG	-0.861 ± 0.12	-2.53 ± 0.14
CAUUAGCAAUAUUACGCAUA	-1.06 ± 0.15	-2.03 ± 0.18
CCUGAGCAAUAUUACGACUA	-1.79 ± 0.24	-2.81 ± 0.25
GAAUAGCAAUAUUACGCAGC	-1.93 ± 0.2	-2.72 ± 0.2
ACUCAGCAAUAUUACGACAG	-0.382 ± 0.12	-1.94 ± 0.11
AAACAGCAAUAUUACGCCUG	-0.538 ± 0.1	-1.99 ± 0.096
GCUUAGCAAUAUUACGGUGU	-0.0556 ± 0.068	-0.596 ± 0.052
AGACAGCAAUAUUACGUUCG	0.0905 ± 0.072	-0.687 ± 0.05
CUUCAGCAAUAUUACGCGGU	-0.649 ± 0.095	-2.21 ± 0.096
